Results: patent US20190153089A1 (NUMAB INNOVATION, published 2019)

B1: humanized scFv 17-21-A01-sc01 (CDR graft) (scFv)
scFv: MDIQMTQSPSSLSASVGDRVTITCQASESIGNALAWYQQKPGKAPKLLIYSASTLASGVPSRFSGSGSGTDFTLTISSLQPEDFATYYCQSYYYSSSGSYVAFGGGTKLTVLGGGGGSGGGGSGGGGSGGGGSEVQLVESGGGLVQPGGSLRLSCAASGIDFNKYYFMCWVRQAPGKGLEWIGCINTGSGSTYYATWAKGRFTISRDNSKNTVYLQMNSLRAEDTAVYYCARASGSSSVVYIGVYFSLWGQGTLVTVSS
B2: humanized scFv 17-21-A01-sc03 (CDR graft with disulfide bridge, CDR/DS) (scFv)
scFv: MDIQMTQSPSSLSASVGDRVTITCQASESIGNALAWYQQKPGKAPKLLIYSASTLASGVPSRFSGSGSGTDFTLTISSLQPEDFATYYCQSYYYSSSGSYVAFGCGTKLTVLGGGGGSGGGGSGGGGSGGGGSEVQLVESGGGLVQPGGSLRLSCAASGIDFNKYYFMCWVRQAPGKCLEWIGCINTGSGSTYYATWAKGRFTISRDNSKNTVYLQMNSLRAEDTAVYYCARASGSSSVVYIGVYFSLWGQGTLVTVSS
notes: A disulfide bridge was introduced between residues VL141-VH51; also called 17-21-A01-sc03 (CDR/DS)
B3: recombinant human TNFβ (Peprotech, Cat. No. 300-01B) (ligand, UniProt P01374 35-205, looked up)
chain: LPGVGLTPSAAQTARQHPKMHLAHSTLKPAAHLIGDPSKQNSLLWRANTDRAFLQDGFSLSNNSLLVPTSGIYFVYSQVVFSGKAYSPKATSSPLYLAHEVQLFSSQYPFHVPLLSSQKMVYPGLQEPWLHSMYHGAAFQLTQGDQLSTHTDGIPHLVLSPSTVFFGAFAL

What was measured:
[1] = target: T1, recombinant Cynomolgus monkey TNFα (Sino Biological, Cat. No. 90018-CNAE) (Cynomolgus monkey (Macaca fascicularis), UniProt P79337 77-233); experiment: SPR
T1 construct: also called Cyno TNFα; Cynomolgus TNFα
T1 sequence (P79337 77-233 limits assumed): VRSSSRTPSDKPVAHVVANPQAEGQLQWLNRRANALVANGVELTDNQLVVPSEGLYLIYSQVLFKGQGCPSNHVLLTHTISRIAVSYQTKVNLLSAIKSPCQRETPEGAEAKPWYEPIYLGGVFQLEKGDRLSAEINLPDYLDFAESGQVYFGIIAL
Procedure: (§1) In a second step, for the best performing scFvs, Single Injection Cycle Kinetics (SiCK) were measured from a single injection cycle by simultaneously injecting six analyte samples at different concentrations into each of the eight parallel channels in the MASS-1 system. […] The apparent dissociation (kd) and association (kₐ) rate constants and the apparent dissociation equilibrium constant (KD) were calculated with the MASS-1 analysis software (Analyzer, Sierra Sensors) using one-to-one Langmuir binding model and quality of the fits was monitored based on Chi², which is a measure for the quality of the curve fitting. The smaller the value for the Chi² the more accurate is the fitting to the one-to-one Langmuir binding model. For affinity screenings, results were deemed valid if the Chi² was below 10 for the concentration analyzed. In cases where several scFv concentrations were analyzed, results were deemed valid if the average Chi² over all the concentrations tested was below 10.

[2] = target: T2, Rhesus monkey TNFα (R&D Systems, Cat. No. 1070-RM-025/CF) (Rhesus monkey (Macaca mulatta), UniProt P48094 77-233); experiment: SPR
T2 construct: also called Rhesus TNFα; Macaca mulatta TNFα
T2 sequence (P48094 77-233 limits assumed): as the sequence (P79337 77-233 limits assumed) above, with V37L counted along it
Procedure: as §1

[3] = target: T3, recombinant human TNFα (Peprotech, Cat. No. 300-01) (human, UniProt P01375 77-233, biotinylated in the inhibition and competition ELISAs; unlabelled elsewhere); experiment: cell-based or functional assay
T3 sequence (P01375 77-233 limits assumed): as the sequence (P79337 77-233 limits assumed) above, with V37L, T44R, N72T, L138R counted along it

[4] = target: T1, recombinant Cynomolgus monkey TNFα …; experiment: cell-based or functional assay
[5] = target: T2, Rhesus monkey TNFα (R&D Systems, Cat. …); experiment: cell-based or functional assay
[6] = target: T3, recombinant human TNFα (Peprotech, Cat. …); experiment: SPR (MASS-1), TNFα immobilized, scFv 45-1.4 nM
Procedure: as §1

[7] = target: T1, recombinant Cynomolgus monkey TNFα …; experiment: SPR (MASS-1), TNFα immobilized, scFv 45-1.4 nM
Procedure: as §1

[8] = target: T2, Rhesus monkey TNFα (R&D Systems, Cat. …); experiment: SPR (MASS-1), TNFα immobilized, scFv 45-1.4 nM
Procedure: as §1

[9] = target: B3; experiment: competition ELISA: unlabeled TNFβ against biotinylated TNFα on coated scFv
Procedure: (§2) For this purpose, the scFvs were coated on a 96-well Maxisorp ELISA plate at a concentration of […]. […] To control precision of the response, the dose-response curves were analyzed in duplicate.

[10] = target: T3, recombinant human TNFα (Peprotech, Cat. …); experiment: inhibition ELISA, biotinylated TNFα (960 pM) preincubated with scFv, binding to coated TNFRI-Fc
Text: (§3) For the first inhibition ELISA, the extracellular domain of TNFRI fused to the Fc region of human IgG (R&D Systems, Cat. No. 372-RI) was coated on a 96-well Maxisorp ELISA at a concentration of […]. For the second inhibition ELISA, the extracellular domain of TNFRII fused to the Fc region of human IgG (R&D Systems, Cat. No. 726-R2) was coated at a concentration of […]. All subsequent steps were identical for both assays.

[11] = target: T3, recombinant human TNFα (Peprotech, Cat. …); experiment: inhibition ELISA, biotinylated TNFα (960 pM) preincubated with scFv, binding to coated TNFRII-Fc
Text: as §3

[12] = target: B1; experiment: competition ELISA: unlabeled TNFβ or TNFα against biotinylated TNFα on coated scFv
Procedure: as §2

[13] = target: B2; experiment: as above
Procedure: as §2

[14] = target: B1; experiment: competition ELISA: unlabeled TNFβ against biotinylated TNFα on coated scFv; scFv 17-21-A01-sc01
Procedure: as §2

[15] = target: B2; experiment: competition ELISA: unlabeled TNFβ against biotinylated TNFα on coated scFv; scFv 17-21-A01-sc03
Procedure: as §2

B1
fold difference in affinity against human TNFα [1]: ~5 fold
fold difference in affinity against human TNFα [2]: ~5 fold
Potency, rel. IC50 in L929 assay (IC50 infliximab / IC50 scFv, ng/mL) [3]: 9.2 fold
Potency, rel. IC90 in L929 assay (IC90 infliximab / IC90 scFv, ng/mL) [3]: 12.2 fold
Species-specificity IC50, L929 assay with human TNFα [3]: 0.0014 µg/mL
Species-specificity IC50, L929 assay with Cynomolgus TNFα [4]: 0.193 µg/mL
Species-specificity IC50, L929 assay with Rhesus TNFα [5]: 0.111 µg/mL
Kd [6]: 0.21 nM
koff [6]: 0.00014 s⁻¹
kon [6]: 660000 M⁻¹ s⁻¹
Kd [7]: 2.4 nM
koff [7]: 0.0016 s⁻¹
kon [7]: 650000 M⁻¹ s⁻¹
Kd [8]: 2.5 nM
koff [8]: 0.0019 s⁻¹
kon [8]: 760000 M⁻¹ s⁻¹
binding result [9]: no binding (tested: 1250 µg/mL)
IC50 [10]: 0.0316 µg/mL
rel. IC50 (IC50 infliximab / IC50 scFv, ng/mL) [10]: 2.9 fold
rel. IC90 (IC90 infliximab / IC90 scFv, ng/mL) [10]: 2 fold
IC50 [11]: 0.0541 µg/mL
rel. IC50 (IC50 infliximab / IC50 scFv, ng/mL) [11]: 2.2 fold
rel. IC90 (IC90 infliximab / IC90 scFv, ng/mL) [11]: 0.8 fold

B2
Potency, rel. IC50 in L929 assay (IC50 infliximab / IC50 scFv, ng/mL) [3]: 6.5 fold
Potency, rel. IC90 in L929 assay (IC90 infliximab / IC90 scFv, ng/mL) [3]: 6.4 fold
Species-specificity IC50, L929 assay with human TNFα [3]: 0.0012 µg/mL
Species-specificity IC50, L929 assay with Cynomolgus TNFα [4]: 0.0506 µg/mL
Species-specificity IC50, L929 assay with Rhesus TNFα [5]: 0.0542 µg/mL
Kd [6]: 0.27 nM
koff [6]: 0.00011 s⁻¹
kon [6]: 400000 M⁻¹ s⁻¹
binding result [9]: no binding (tested: 1250 µg/mL)
IC50 [10]: 0.0502 µg/mL
rel. IC50 (IC50 infliximab / IC50 scFv, ng/mL) [10]: 1.8 fold
rel. IC90 (IC90 infliximab / IC90 scFv, ng/mL) [10]: 1.8 fold
IC50 [11]: 0.0467 µg/mL
rel. IC50 (IC50 infliximab / IC50 scFv, ng/mL) [11]: 2.6 fold
rel. IC90 (IC90 infliximab / IC90 scFv, ng/mL) [11]: 0.8 fold

B3
Target selectivity, rel. IC50 of TNFβ vs TNFα [12]: > 10000 fold
Target selectivity, rel. IC50 of TNFβ vs TNFα [13]: > 10000 fold
IC50 [14]: > 1250 µg/mL
IC50 [15]: > 1250 µg/mL
